B1: APBB1IP (parent)
chain: FNYSVGFKDLNESLNALEDQDLDA
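Further: lentivirally expressed fusions sorted by FACS into six bins by GFP to DsRed ratio, PSI derived from sequencing read proportions per bin multiplied by bin number.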

The variants in this data set derive from B1. The data set is described as follows: protein stability index of a GFP-peptide fusion (GPS, HEK-293T) (PSI 1-6); higher = more stable. Particulars: c terminus: a fixed tail appended.
As for FNYSVGFKDLNESLNALEDQDSDA, the protein stability index stood at 4.76.

On to FNYSVGFKDLNESLNALEDQDDDA, for which the protein stability index stood at 4.68.

For the variant FNYSVGFKDLNESLNALEDQDADA, the protein stability index is 5.06.

Consider FNYSVGFKDLNESLNALEDQDKDA, for which the protein stability index came to 4.86.

Regarding FNYSVGFKDLNESLNALEDQDWDA, the protein stability index amounted to 3.86.

Take FNYSVGFKDLNESLNALEDQDQDA: the protein stability index was determined as 4.67.

For the variant FNYSVGFKDLNESLNALEDQDTDA, the protein stability index came to 4.82.

On to FNYSVGFKDLNESLNALEDQDIDA, for which the protein stability index was determined as 4.74.

As to FNYSVGFKDLNESLNALEDQDCDA, the protein stability index is 4.62.

For the variant FNYSVGFKDLNESLNALEDQDNDA, the protein stability index is 4.79.

As to FNYSVGFKDLNESLNALEDQDMDA, the protein stability index came to 4.72.

In the case of FNYSVGFKDLNESLNALEDQDHDA, the protein stability index was found to be 4.96.

FNYSVGFKDLNESLNALEDQDGDA: the protein stability index was determined as 5.28.

For FNYSVGFKDLNESLNALEDQDYDA, the protein stability index turned out to be 4.37.

On to FNESVGFKDLNESLNALEDQDLDA, for which the protein stability index stood at 5.43.

FNQSVGFKDLNESLNALEDQDLDA: the protein stability index came out at 5.36.

Regarding FNMSVGFKDLNESLNALEDQDLDA, the protein stability index was determined as 4.4.

FNTSVGFKDLNESLNALEDQDLDA: the protein stability index was determined as 5.54.

On to FNYSVGFKDLNESLNALEDEDLDA, for which the protein stability index came out at 4.69.

As to FNYSVGFKDLNESLNALEDSDLDA, the protein stability index was found to be 3.97.

Take FNYSVGFKDLNESLNALEDFDLDA: the protein stability index worked out at 3.57.

Turning to FNYSVGFKDLNESLNALEDDDLDA, the protein stability index was found to be 4.4.

In the case of FNYSVGFKDLNESLNALEDNDLDA, the protein stability index came to 4.53.

As for FNYSVGFKDLNESLNALEDGDLDA, the protein stability index was found to be 4.57.

Take FNYSVGFADLNESLNALEDQDLDA: the protein stability index amounted to 4.16.

With FNYSVGFYDLNESLNALEDQDLDA, the protein stability index amounted to 3.58.

Take FNYSVGFSDLNESLNALEDQDLDA: the protein stability index worked out at 4.56.

On to FNYSVGFFDLNESLNALEDQDLDA, for which the protein stability index amounted to 2.99.

Consider FNYSVGFLDLNESLNALEDQDLDA, for which the protein stability index stood at 3.17.

In the case of FNYSVGFNDLNESLNALEDQDLDA, the protein stability index is 4.74.

On to FNYSVGFKDLNESLNAYEDQDLDA, for which the protein stability index amounted to 3.96.

Take FNYSVGFKDLNESLNANEDQDLDA: the protein stability index came to 5.02.

As to FNYSVGFKDLNESLNATEDQDLDA, the protein stability index is 5.18.

Regarding FNYSVGFKDLNESLNAGEDQDLDA, the protein stability index is 4.51.

For FNYSVGFKDLNESLNACEDQDLDA, the protein stability index was determined as 4.48.

On to FNYSVGFKDLNESLNAHEDQDLDA, for which the protein stability index turned out to be 4.18.

For the variant FNYSVGFKDLNESLNAPEDQDLDA, the protein stability index was 4.65.

For the variant FNYSVGFKDLNESLNASEDQDLDA, the protein stability index is 4.78.

Regarding FNYSVGFKDLNESLNALEIQDLDA, the protein stability index was determined as 3.86.

As to FNYSVGFKDLNESLNALEVQDLDA, the protein stability index was found to be 3.56.

FNYSVGFKDLNESLNALEAQDLDA: the protein stability index was 3.97.

Regarding FNYSVGFKDLNESLNALESQDLDA, the protein stability index is 3.73.

With FNYSVGFKDLNESLNALELQDLDA, the protein stability index was determined as 3.53.

As for FNYSVGFKDLNESLNALERQDLDA, the protein stability index amounted to 3.67.

In the case of FNYSVGFKDLNESLNALEYQDLDA, the protein stability index is 3.93.

On to FNYSVGFKDLNESLNALEGQDLDA, for which the protein stability index came to 4.36.

Consider FNYSVGFKDLNESLNALEKQDLDA, for which the protein stability index worked out at 4.5.

On to FNYSVGFKDLNESLNALEEQDLDA, for which the protein stability index was 4.53.

As for TNYSVGFKDLNESLNALEDQDLDA, the protein stability index was determined as 5.35.

Turning to HNYSVGFKDLNESLNALEDQDLDA, the protein stability index was determined as 5.05.

Take INYSVGFKDLNESLNALEDQDLDA: the protein stability index is 4.43.

MNYSVGFKDLNESLNALEDQDLDA: the protein stability index was found to be 5.31.

For the variant FNYSVGFKDLNESLNALEDQDLWA, the protein stability index was 1.81.

Regarding FNYSVGFKDLNESLNALEDQDLEA, the protein stability index came to 4.22.

For the variant FNYSVGFKDLNESLNALEDQDLPA, the protein stability index was 4.38.

FNYSVGFKDLNESLNALEDQDLRA: the protein stability index came to 3.81.

Take FNYSVGFKDLNESLNALEDQDLVA: the protein stability index amounted to 3.18.

Take FNYSVGFKDLNESLNALEDQDLFA: the protein stability index amounted to 2.44.

Take FNYSVGFKDLNESLNALEDQDLKA: the protein stability index worked out at 3.87.

Regarding FNYSVGFKDLNESLNALEDQDLLA, the protein stability index was 3.14.

Regarding FNYSVGFKDLNESLNALEDQVLDA, the protein stability index was 3.38.

Consider FNYSVGFKDLNESLNALEDQALDA, for which the protein stability index amounted to 3.69.

With FNYSVGFKDLNESLNALEDQRLDA, the protein stability index amounted to 3.

In the case of FNYSVGFKDLNESLNALEDQNLDA, the protein stability index turned out to be 4.07.

As to FNYSVGFKDLNESLNALEDQLLDA, the protein stability index stood at 2.8.

As for FNYSVGFKDLNESLNALEDQELDA, the protein stability index stood at 4.25.

Take FNYSVGFKDLNESLNALEDQQLDA: the protein stability index amounted to 3.75.

As to FNYSVGFKDLNESLNALEDQYLDA, the protein stability index amounted to 2.38.

In the case of FNYSVGFKDLNESLNALEDQFLDA, the protein stability index turned out to be 2.34.

As to FNYSVGFKFLNESLNALEDQDLDA, the protein stability index came to 3.52.

In the case of FNYSVGFKMLNESLNALEDQDLDA, the protein stability index was determined as 3.86.

As for FNYSVGFKGLNESLNALEDQDLDA, the protein stability index amounted to 4.39.

For the variant FNYSVGFKVLNESLNALEDQDLDA, the protein stability index is 2.67.

In the case of FNYSVGFKDLNESPNALEDQDLDA, the protein stability index was determined as 4.76.

FNYSVGFKDLNESMNALEDQDLDA: the protein stability index is 4.61.

For the variant FNYSVGFKDLNESTNALEDQDLDA, the protein stability index was 4.98.

For the variant FNYSVGFKDLNESGNALEDQDLDA, the protein stability index was determined as 4.9.

For FNYSVGFKDLNESWNALEDQDLDA, the protein stability index stood at 4.05.

Take FNYSVGFKDLNESYNALEDQDLDA: the protein stability index amounted to 4.49.

As for FNYSVGFKDLNESRNALEDQDLDA, the protein stability index stood at 4.57.

As for FNYSVGFKDLNESINALEDQDLDA, the protein stability index was 4.71.

In the case of FNYSVGFKDLIESLNALEDQDLDA, the protein stability index was determined as 3.31.

Consider FNYSVGFKDLTESLNALEDQDLDA, for which the protein stability index turned out to be 4.58.

For the variant FNYSVGFKDLGESLNALEDQDLDA, the protein stability index worked out at 4.29.

With FNYSVGFKDLDESLNALEDQDLDA, the protein stability index is 4.75.

With FNYSVGFKDLCESLNALEDQDLDA, the protein stability index was 4.06.

With FNYSVGFKDLAESLNALEDQDLDA, the protein stability index worked out at 4.45.

FNYSVGFKDLMESLNALEDQDLDA: the protein stability index was 3.68.

For the variant FNYSVGFKDLFESLNALEDQDLDA, the protein stability index worked out at 3.62.

With FNYSVGFKDLRESLNALEDQDLDA, the protein stability index came to 4.18.

On to FNYSVGFKDTNESLNALEDQDLDA, for which the protein stability index stood at 4.55.

For the variant FNYSVGFKDVNESLNALEDQDLDA, the protein stability index was determined as 4.86.

Regarding FNYSVGFKDFNESLNALEDQDLDA, the protein stability index is 3.95.

For FNYSVGFKDSNESLNALEDQDLDA, the protein stability index was found to be 5.06.
